Substrate: CCn1c(=NN=c2sc3cc(S(=O)(=O)O)ccc3n2CC)sc2cc(S(=O)(=O)O)ccc21
Test: purified protein
Format: biochemical, Pleurotus ostreatus
Conditions: free soluble enzyme, 0.1 M sodium citrate pH 3.0, 25°C (general assay)

B1: POXC (Pleurotus ostreatus) (protein)
chain: AIGPAGNMYIVNEDVSPDGFARSAVVARSVPATDPTPATASIPGVLVQGNKGDNFQLNVVNQLSDTTMLKTTSIHWHGFFQAGSSWADGPAFVTQCPVASGDSFLYNFNVPDQAGTFWYHSHLSTQYCDGLRGPFVVYDPSDPHLSLYDIDNADTVITLEDWYHIVAPQNAAIPTPDSTLINGKGRYAGGPTSPLAIINVESNKRYRFRLVSMSCDPNFTFSIDGHSLLVIEADAVNIVPITVDSIQIFAGQRYSFVLTANQAVDNYWIRANPNLGSTGFVGGINSAILRYAGATEDDPTTTSSTSTPLLETNLVPLENPGAPGPPVPGGADININLAMAFDFTTFELTINGVPFLPPTAPVLLQILSGASTAASLLPSGSIYELEANKVVEISMPALAVGGPHPFHLHGHTFDVIRSAGSTTYNFDTPARRDVVNTGTGANDNVTIRFVTDNPGPWFLHCHIDWHLEIGLAVVFAEDVTSISAPPAAWDDLCPIYNALSDNDKGGIVPS
notes: native purified laccase isoenzyme from P. ostreatus; soluble form
**Q.** B1 was tested. Which Km did it give?
**A.** 30 µM

**Q.** And the kcat?
**A.** 10300 s⁻¹
